{"source": "patent US20240118272A1", "key": {"[1]": {"target": "CD9(FL)-ALP conjugate (human; bovine)", "sequence (chain, as listed by the source, chain 1 of 2)": "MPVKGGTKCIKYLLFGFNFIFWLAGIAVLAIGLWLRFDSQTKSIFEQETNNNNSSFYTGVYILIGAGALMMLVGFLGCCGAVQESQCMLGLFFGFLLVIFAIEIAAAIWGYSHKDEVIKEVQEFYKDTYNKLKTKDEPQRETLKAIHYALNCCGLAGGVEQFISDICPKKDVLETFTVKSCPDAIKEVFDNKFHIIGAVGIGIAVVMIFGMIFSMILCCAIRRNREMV", "sequence (P19111 20-506, chain 2 of 2)": "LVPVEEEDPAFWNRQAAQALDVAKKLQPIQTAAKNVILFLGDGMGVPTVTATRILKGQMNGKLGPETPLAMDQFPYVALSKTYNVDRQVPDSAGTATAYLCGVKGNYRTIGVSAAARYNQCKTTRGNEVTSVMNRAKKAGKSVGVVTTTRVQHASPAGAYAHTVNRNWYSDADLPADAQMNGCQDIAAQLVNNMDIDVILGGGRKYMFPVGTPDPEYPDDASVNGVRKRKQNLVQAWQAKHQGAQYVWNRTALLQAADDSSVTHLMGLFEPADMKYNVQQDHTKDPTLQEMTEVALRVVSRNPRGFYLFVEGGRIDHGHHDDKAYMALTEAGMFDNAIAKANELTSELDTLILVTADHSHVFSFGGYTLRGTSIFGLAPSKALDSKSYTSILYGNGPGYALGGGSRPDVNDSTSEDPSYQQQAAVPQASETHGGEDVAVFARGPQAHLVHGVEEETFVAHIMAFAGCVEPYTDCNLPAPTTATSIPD", "assay": "HI-1000 capture immunoassay; calibrator C4, 15 ng/mL; run 3"}, "[2]": {"target": "CD9(FL)-ALP conjugate (human; bovine)", "assay": "HI-1000 capture immunoassay; calibrator C5, 30 ng/mL; run 3"}, "[3]": {"target": "CD9(FL)-ALP conjugate (human; bovine)", "assay": "HI-1000 capture immunoassay; calibrator C1, 1.0 ng/mL; run 1"}, "[4]": {"target": "CD9(FL)-ALP conjugate (human; bovine)", "assay": "HI-1000 capture immunoassay; calibrator C1, 1.83 mU/L; run 1"}, "[5]": {"target": "CD9(FL)-ALP conjugate (human; bovine)", "assay": "HI-1000 capture immunoassay; calibrator C1, 1.83 mU/L; run 3"}, "[6]": {"target": "CD9(FL)-ALP conjugate (human; bovine)", "assay": "HI-1000 capture immunoassay; calibrator C2, 5.48 mU/L; run 3"}, "[7]": {"target": "CD9(FL)-ALP conjugate (human; bovine)", "assay": "HI-1000 capture immunoassay; calibrator C3, 10.96 mU/L; run 1"}, "[8]": {"target": "CD9(FL)-ALP conjugate (human; bovine)", "assay": "HI-1000 capture immunoassay; calibrator C4, 21.93 mU/L; run 3"}, "[9]": {"target": "CD9(FL)-ALP conjugate (human; bovine)", "assay": "HI-1000 capture immunoassay; calibrator C5, 43.86 mU/L; run 1"}, "[10]": {"target": "CD9(FL)-ALP conjugate (human; bovine)", "assay": "HI-1000 capture immunoassay; calibrator C5, 43.86 mU/L; run 2"}, "[11]": {"target": "CD9(FL)-ALP conjugate (human; bovine)", "assay": "HI-1000 capture immunoassay; calibrator C5, 30 ng/mL; mean of 3"}, "[12]": {"target": "CD9(FL)-ALP conjugate (human; bovine)", "assay": "HI-1000 capture immunoassay; calibrator C2, 3.7 ng/mL; mean of 3"}, "[13]": {"target": "CD9(FL)-ALP conjugate (human; bovine)", "assay": "HI-1000 capture immunoassay; calibrator C1, 1.83 mU/L; mean of 3"}, "[14]": {"target": "CD9(FL)-ALP conjugate (human; bovine)", "assay": "HI-1000 capture immunoassay; calibrator C5, 43.86 mU/L; mean of 3"}, "[15]": {"target": "CD9(ECD)-ALP conjugate (human; bovine)", "sequence (chain, as listed by the source, chain 1 of 2)": "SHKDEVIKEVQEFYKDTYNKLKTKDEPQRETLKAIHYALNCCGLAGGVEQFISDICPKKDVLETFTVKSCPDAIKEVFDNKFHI", "sequence (P19111 20-506, chain 2 of 2)": "as the sequence (P19111 20-506, chain 2 of 2) above", "assay": "HI-1000 capture immunoassay; primary calibrator C1, 1.52 ng/mL; run 2"}, "[16]": {"target": "CD9(ECD)-ALP conjugate (human; bovine)", "assay": "HI-1000 capture immunoassay; primary calibrator C1, 1.52 ng/mL; run 3"}, "[17]": {"target": "CD9(ECD)-ALP conjugate (human; bovine)", "assay": "HI-1000 capture immunoassay; primary calibrator C2, 4.89 ng/mL; run 1"}, "[18]": {"target": "CD9(ECD)-ALP conjugate (human; bovine)", "assay": "HI-1000 capture immunoassay; secondary calibrator C1, 1.02 U/L; run 2"}, "[19]": {"target": "CD9(ECD)-ALP conjugate (human; bovine)", "assay": "HI-1000 capture immunoassay; secondary calibrator C1, 1.02 U/L; run 3"}, "[20]": {"target": "CD9(ECD)-ALP conjugate (human; bovine)", "assay": "HI-1000 capture immunoassay; primary calibrator C3, 15.65 ng/mL; run 3"}, "[21]": {"target": "CD9(ECD)-ALP conjugate (human; bovine)", "assay": "HI-1000 capture immunoassay; primary calibrator C4, 50.05 ng/mL; run 2"}, "[22]": {"target": "CD9(ECD)-ALP conjugate (human; bovine)", "assay": "HI-1000 capture immunoassay; secondary calibrator C3, 14.32 U/L; run 1"}, "[23]": {"target": "CD9(ECD)-ALP conjugate (human; bovine)", "assay": "HI-1000 capture immunoassay; secondary calibrator C3, 14.32 U/L; run 2"}, "[24]": {"target": "CD9(ECD)-ALP conjugate (human; bovine)", "assay": "HI-1000 capture immunoassay; secondary calibrator C4, 129.62 U/L; run 1"}, "[25]": {"target": "CD9(ECD)-ALP conjugate (human; bovine)", "assay": "HI-1000 capture immunoassay; secondary calibrator C4, 129.62 U/L; run 2"}, "[26]": {"target": "CD9(ECD)-ALP conjugate (human; bovine)", "assay": "HI-1000 capture immunoassay; secondary calibrator C4, 129.62 U/L; run 3"}, "[27]": {"target": "CD9(ECD)-ALP conjugate (human; bovine)", "assay": "HI-1000 capture immunoassay; secondary calibrator C5, 387.01 U/L; run 1"}, "[28]": {"target": "CD9(ECD)-ALP conjugate (human; bovine)", "assay": "HI-1000 capture immunoassay; secondary calibrator C5, 387.01 U/L; run 3"}, "[29]": {"target": "CD9(ECD)-ALP conjugate (human; bovine)", "assay": "HI-1000 capture immunoassay; secondary calibrator C2; mean of 3 aliquots"}, "[30]": {"target": "CD9(ECD)-ALP conjugate (human; bovine)", "assay": "HI-1000 capture immunoassay; secondary calibrator C3; mean of 3 aliquots"}, "[31]": {"target": "CD9(ECD)-ALP conjugate (human; bovine)", "assay": "HI-1000 capture immunoassay; thawed aliquot 1 of secondary calibrator C3"}, "[32]": {"target": "CD9(ECD)-ALP conjugate (human; bovine)", "assay": "HI-1000 capture immunoassay; thawed aliquot 1 of secondary calibrator C4"}, "[33]": {"target": "CD9(ECD)-ALP conjugate (human; bovine)", "assay": "HI-1000 capture immunoassay; thawed aliquot 1 of secondary calibrator C5"}, "[34]": {"target": "CD9(ECD)-ALP conjugate (human; bovine)", "assay": "HI-1000 capture immunoassay; thawed aliquot 2 of secondary calibrator C1"}, "[35]": {"target": "CD9(ECD)-ALP conjugate (human; bovine)", "assay": "HI-1000 capture immunoassay; thawed aliquot 3 of secondary calibrator C2"}, "[36]": {"target": "CD9(ECD)-ALP conjugate (human; bovine)", "assay": "HI-1000 capture immunoassay; thawed aliquot 3 of secondary calibrator C4"}, "[37]": {"target": "CD9(ECD)-ALP conjugate (human; bovine)", "assay": "HI-1000 capture immunoassay; primary calibrator C2, 4.89 ng/mL; mean of 3"}, "[38]": {"target": "CD9(ECD)-ALP conjugate (human; bovine)", "assay": "HI-1000 capture immunoassay; primary calibrator C3, 15.65 ng/mL; mean of 3"}, "[39]": {"target": "CD9(ECD)-ALP conjugate (human; bovine)", "assay": "HI-1000 capture immunoassay; primary calibrator C4, 50.05 ng/mL; mean of 3"}, "[40]": {"target": "CD9(ECD)-ALP conjugate (human; bovine)", "assay": "HI-1000 capture immunoassay; secondary calibrator C4, 129.62 U/L; mean of 3"}}, "data": [{"substance": "anti-CD9 antibody (Clone: H19a)", "values": [{"measurement": "Count value", "setting": "[1]", "result": 13900, "unit": "count"}, {"measurement": "Count value", "setting": "[2]", "result": 26100, "unit": "count"}, {"measurement": "Count value", "setting": "[3]", "result": 1420, "unit": "count"}, {"measurement": "Count value", "setting": "[4]", "result": 1580, "unit": "count"}, {"measurement": "Count value", "setting": "[5]", "result": 1460, "unit": "count"}, {"measurement": "Count value", "setting": "[6]", "result": 3780, "unit": "count"}, {"measurement": "Count value", "setting": "[7]", "result": 6330, "unit": "count"}, {"measurement": "Count value", "setting": "[8]", "result": 13300, "unit": "count"}, {"measurement": "Count value", "setting": "[9]", "result": 25800, "unit": "count"}, {"measurement": "Count value", "setting": "[10]", "result": 25600, "unit": "count"}, {"measurement": "Count value (av)", "setting": "[11]", "result": 25900, "unit": "count"}, {"measurement": "Count value (av)", "setting": "[12]", "result": 4280, "unit": "count"}, {"measurement": "Count value (av)", "setting": "[13]", "result": 1540, "unit": "count"}, {"measurement": "Count value (av)", "setting": "[14]", "result": 26400, "unit": "count"}, {"measurement": "Count value", "setting": "[15]", "result": 1100, "unit": "count"}, {"measurement": "Count value", "setting": "[16]", "result": 1120, "unit": "count"}, {"measurement": "Count value", "setting": "[17]", "result": 2610, "unit": "count"}, {"measurement": "Count value", "setting": "[18]", "result": 937, "unit": "count"}, {"measurement": "Count value", "setting": "[19]", "result": 912, "unit": "count"}, {"measurement": "Count value", "setting": "[20]", "result": 6980, "unit": "count"}, {"measurement": "Count value", "setting": "[21]", "result": 21800, "unit": "count"}, {"measurement": "Count value", "setting": "[22]", "result": 7980, "unit": "count"}, {"measurement": "Count value", "setting": "[23]", "result": 8240, "unit": "count"}, {"measurement": "Count value", "setting": "[24]", "result": 71000, "unit": "count"}, {"measurement": "Count value", "setting": "[25]", "result": 69400, "unit": "count"}, {"measurement": "Count value", "setting": "[26]", "result": 69500, "unit": "count"}, {"measurement": "Count value", "setting": "[27]", "result": 220000, "unit": "count"}, {"measurement": "Count value", "setting": "[28]", "result": 209000, "unit": "count"}, {"measurement": "Count value (av)", "setting": "[29]", "result": 1560, "unit": "count"}, {"measurement": "Count value (av)", "setting": "[30]", "result": 3900, "unit": "count"}, {"measurement": "Count value", "setting": "[31]", "result": 3830, "unit": "count"}, {"measurement": "Count value", "setting": "[32]", "result": 11400, "unit": "count"}, {"measurement": "Count value", "setting": "[33]", "result": 36500, "unit": "count"}, {"measurement": "Count value", "setting": "[34]", "result": 810, "unit": "count"}, {"measurement": "Count value", "setting": "[35]", "result": 1520, "unit": "count"}, {"measurement": "Count value", "setting": "[36]", "result": 11400, "unit": "count"}, {"measurement": "Count value (av)", "setting": "[37]", "result": 2560, "unit": "count"}, {"measurement": "Count value (av)", "setting": "[38]", "result": 7190, "unit": "count"}, {"measurement": "Count value (av)", "setting": "[39]", "result": 22200, "unit": "count"}, {"measurement": "Count value (av)", "setting": "[40]", "result": 70000, "unit": "count"}]}]}
